Laboratory results published in patent publication US20090233850A1 (PHILADELPHIA HEALTH AND EDUCATION CORPORATION D B A DREXEL …, published 2009).
Numbering of substitutions follows the chain as printed.

Legend:
[1] = molecular target: T1, recombinant monomeric HIV-1 YU2 gp120, produced in Drosophila S2 cells (HIV-1 YU2, UniProt P35961 32-498, limits assumed, glycosylated (high-mannose glycans are the CVN binding sites)); assay: competition ELISA on plate-adsorbed YU2 gp120; competitor mAb 2G12 at 50 ug/ml; percent of control without L5
T1 construct: domain: gp120

[2] = molecular target: T1, recombinant monomeric HIV-1 YU2 gp120, …; assay: competition ELISA on plate-adsorbed YU2 gp120; competitor mAb F105 at a 1:20,000 dilution; percent of control without L5
[3] = molecular target: T1, recombinant monomeric HIV-1 YU2 gp120, …; assay: competition ELISA, adsorbed YU2 gp120, increasing L5 with 2 ug/ml mAb 17b as competitor; inhibition of mAb 17b binding to gp120, ELISA
[4] = molecular target: T1, recombinant monomeric HIV-1 YU2 gp120, …; assay: ELISA, 100 ng YU2 gp120 adsorbed on the plate, serial dilutions of L5, detection with polyclonal anti-CVN, BSA background subtracted
[5] = molecular target: T1, recombinant monomeric HIV-1 YU2 gp120, …; assay: competition ELISA on plate-adsorbed YU2 gp120; blocked ligand sCD4 at 0.5 ug/ml, detected with anti-CD4; percent of uninhibited control
[6] = molecular target: T1, recombinant monomeric HIV-1 YU2 gp120, …; assay: ELISA, 100 ng YU2 gp120 adsorbed on the plate, serial dilutions of L5-S12p1, detection with polyclonal anti-CVN, BSA background subtracted
Method: Error bars indicate standard deviation.
YU2 was adsorbed to a 96-well EIA/RIA plate overnight at 4° C.
Ninety-six well plates (Corning) were coated with either 100 ng of the indicated gp120 or BSA overnight at 4° C. The wells were washed three times with 1×PBS-T (PBS, 0.1% Tween) and non-specific binding blocked with 1% (wt/vol) BSA in PBS. […] After a one hour incubation, the wells were washed and incubated with a 1/2500 dilution of anti-rabbit HRP (Amersham) for one hour at room temperature. The wells were washed three times and the extent of binding was then determined by OPD (o-phenylenediamine, Sigma) and absorbance measured at 450 nm.

[7] = molecular target: T2, HIV-1 SF162 gp120 (Clade B) (HIV-1 SF162, UniProt P19550 32-502); assay: ELISA, 100 ng gp120 adsorbed on the plate, 50 nM CVN, detection with polyclonal anti-CVN, BSA background subtracted
T2 construct: domain: gp120

B1: L5 chimera (CVN-12p1): CVN, linker of five Gly4Ser repeats, 12p1, C-terminal hexa-histidine tag (other)
chain: LGKFSQTCYNSAIQGSVLTSTCERTNGGYNTSSIDLNSVIENVDGSLKWQPSNFIETCRNTQLAGSSELAAECKTRAQQFVSTKINLDDHIANIDGTLKYEGSGGGGSGGGGSGGGGSGGGGSGGGGSRINNIPWSEAMMHHHHHH
notes: Fusion protein, about 15 kDa; also called the chimera
- IC50 (read off the curve) [1]: ~40 nM
- IC50 (read off the curve) [2]: ~20 nM
- IC50 [3]: 38 nM
- EC50 (read off the curve) [4]: ~9 nM
- IC50 (read off the curve) [5]: ~20 nM

B2: L5-S12p1: chimera of CVN, linker of five Gly4Ser repeats and scrambled (non-sense) 12p1 peptide (other)
chain: B1 chain with R129W, I130R, N131I, N132M, I133M, P134I, W135P, M139N, M140N
notes: check the entry type; also called scrambled chimera
- EC50 (read off the curve) [6]: ~20 nM

B3: cyanovirin-N (CVN), recombinant, periplasmic expression in E. coli, hexa-histidine tagged (other)
chain: LGKFSQTCYNSAIQGSVLTSTCERTNGGYNTSSIDLNSVIENVDGSLKWQPSNFIETCRNTQLAGSSELAAECKTRAQQFVSTKINLDDHIANIDGTLKYEHHHHHH
notes: Lectin, 11 kDa
- binding result [7]: binds
